Measurements: patent publication US20080220459

How the values were obtained:
[1] = test system: bovine collagen alpha1 (IX) in bovine nasal cartilage explants
[2] = molecular target: human collagen alpha1 (IX) in human articular cartilage (UniProt P20849)
human collagen alpha1 (IX) in human articular cartilage, sequence (P20849 24-921): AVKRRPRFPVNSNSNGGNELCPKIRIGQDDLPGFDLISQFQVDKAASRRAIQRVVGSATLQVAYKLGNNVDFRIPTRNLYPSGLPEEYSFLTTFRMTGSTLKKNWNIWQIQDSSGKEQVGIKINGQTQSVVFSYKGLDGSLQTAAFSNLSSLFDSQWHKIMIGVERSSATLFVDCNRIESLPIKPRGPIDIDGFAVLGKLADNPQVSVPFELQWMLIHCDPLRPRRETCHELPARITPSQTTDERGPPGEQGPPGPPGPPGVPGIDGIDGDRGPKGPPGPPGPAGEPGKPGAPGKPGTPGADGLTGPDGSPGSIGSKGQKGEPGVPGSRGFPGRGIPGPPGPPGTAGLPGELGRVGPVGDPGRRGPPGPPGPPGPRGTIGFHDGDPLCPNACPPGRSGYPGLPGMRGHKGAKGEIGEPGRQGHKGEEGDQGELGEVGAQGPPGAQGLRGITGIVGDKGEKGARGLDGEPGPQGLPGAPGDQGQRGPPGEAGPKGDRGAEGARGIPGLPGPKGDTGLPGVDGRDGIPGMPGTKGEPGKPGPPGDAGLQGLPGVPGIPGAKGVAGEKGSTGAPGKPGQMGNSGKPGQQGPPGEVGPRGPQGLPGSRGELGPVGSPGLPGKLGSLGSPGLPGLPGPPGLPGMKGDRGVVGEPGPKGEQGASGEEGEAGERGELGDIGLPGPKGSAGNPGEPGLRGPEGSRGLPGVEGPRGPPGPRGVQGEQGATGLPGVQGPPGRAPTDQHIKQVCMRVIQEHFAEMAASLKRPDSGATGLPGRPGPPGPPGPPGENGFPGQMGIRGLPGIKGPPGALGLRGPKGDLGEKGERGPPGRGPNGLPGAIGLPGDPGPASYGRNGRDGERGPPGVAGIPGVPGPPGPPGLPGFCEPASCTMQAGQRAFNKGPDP

## matrix metalloproteinase 13 (MMP-13)
[1]
  cleavage of collagen alpha1 (IX) in cartilage explants (Western blot and LC-MS of released fragments): Bovine nasal cartilage explants were digested with MMP-13 and indeed the enzyme cleaved collagen α1 (IX)
[2]
  cleavage of collagen alpha1 (IX) in human articular cartilage (Western blot and LC-MS of the released 30 kD fragment): a peptide representing a potentially new cleavage site CHELPARITPSQ^263-COOH (SEQ ID NO:6) NH2-TTDERGPP- (SEQ ID NO:7)
